Results: patent US5976495A, “Peptide derived radionuclide chelators” (Resolution Pharmaceuticals, Inc., priority 1996, dated 1999)
No end group written: not given here. *: point of attachment. Acm = CC(=O)NC*

System: focal inflammation in the leg (zymosan-injected left hindleg)
Assay type: in vivo, male Wistar rats
Conditions: rat; for Fluid:Blood (inflammatory exudate:blood) / Inflam:Uninfl (inflamed:uninflamed muscle, target to background ratio): i.v. via tail vein, 30 minutes, average of two rats; for Inflam:Uninfl (inflamed:uninflamed muscle, target to background ratio): corrected for residual dose in the tail; for GI Tract (% dose) / Liver (% dose) / Urine (% dose): in vivo, iv
Experimental: Rat inflammation studies were performed as follows.
Serial whole-body scintigrams were acquired at 30 minutes.

Substance	Fluid:Blood (inflammatory exudate:blood)	Inflam:Uninfl (inflamed:uninflamed muscle, target to background ratio)	GI Tract (% dose)	Liver (% dose)	Urine (% dose)
N,N-dibenzylGly-Ser-Cys(Acm)-Gly-Thr-Lys-Pro-Pro-Arg ({N,N‑dibenzyl}-GSC(Acm)GTKPPR)	0.4	3.7	7.5 % dose	2.3 % dose	55.1 % dose
N,N-dimethylGly-Ser-Cys(Acm)-Gly-Thr-Lys-Pro-Pro-Arg ({N,N‑dimethyl}-GSC(Acm)GTKPPR)	1.9	5.3	2.8 % dose	2.4 % dose	63.5 % dose
N,N-dimethylGly-Thr-Cys(Acm)-Gly-Thr-Lys-Pro-Pro-Arg ({N,N‑dimethyl}-GTC(Acm)GTKPPR)	1.6	4.6	2.5 % dose	2.4 % dose	–
